Here are results for five substances from publication doi:10.1101/2019.12.19.882373.

Common to all, as to assay: FRET or BRET
Experiment [1] deals with cohesin module 7 of scaffoldin CipC (c7C) (C. cellulolyticum).
Experiment [2] has as its target cohesin 1 from scaffoldin CipC (c1C) (C. cellulolyticum).
Experiment [3] has as its target CipA cohesin 2 module (c2A), G144C, labelled with Cy3B (C. thermocellum).
Experiment [4] deals with CipA cohesin 7 module (c7A) (C. thermocellum) (UniProt Q06851).
Experiment [5] has as its target CipA cohesin 1 module (c1A) (C. thermocellum) (UniProt Q06851).

With “dockerin from the cellulase 5A of C. cellulolyticum (CcCel5A) (domain or fragment)”, the fraction of complexes in binding mode B1 stood at 0.45 in experiment [1] and 0.26 in experiment [2].

Take “dockerin from cellulase A (CelA) (domain or fragment)”: the values for the fraction of complexes in binding mode B1 in experiment [3] and in experiment [4] were 0.37 and 0.48, respectively.

For “swapped version of dockerin celS (celS_Swap), helices H1 and H3 exchanged (domain or fragment)”, the fraction of complexes in binding mode B1 in experiment [3] is 0.89; in experiment [4], 0.69; in experiment [5], 0.59.

Take “dockerin CelS (type-I dockerin module of cellulase S), D63C, labelled with Alexa Fluor 647 (domain or fragment)”: the results for the fraction of complexes in binding mode B1 in experiment [3] and in experiment [4] were 0.43 and 0.58, respectively.

In experiment [3], “dockerin celS single residue clasp mutant Y5A (celS_Y5A) (domain or fragment)” gave a fraction of complexes in binding mode B1 of 0.42 and a fraction of complexes in binding mode B1 (cyclophilin-treated) of 0.2.
